Results taken from patent publication US9683988B2, “Cell model and method for screening c-Fms kinase inhibitors” (Institute of Pharmacology and Toxicology Academy of …, priority 2011, dated 2017).

Legend:
[1] = biological target: T1, c-Fms kinase in the U2OS-GFP-STAT1/CSF-1R cells (Homo sapiens, UniProt P07333); assay: Dose-effect of hrM-CSF inducing GFP-STAT1 nuclear translocation in U2OS-GFP-STAT1/CSF-1R cells; assay type: cell-based; conditions: 30 minutes
T1 construct: comprising full-length cDNA of human c-Fms; expressed in transfected cells; host or cells: human osteosarcoma U2OS cells stably expressing GFP-STAT1 (U2OS-GFP-STAT1/CSF-1R)
T1 sequence (P07333 20-972): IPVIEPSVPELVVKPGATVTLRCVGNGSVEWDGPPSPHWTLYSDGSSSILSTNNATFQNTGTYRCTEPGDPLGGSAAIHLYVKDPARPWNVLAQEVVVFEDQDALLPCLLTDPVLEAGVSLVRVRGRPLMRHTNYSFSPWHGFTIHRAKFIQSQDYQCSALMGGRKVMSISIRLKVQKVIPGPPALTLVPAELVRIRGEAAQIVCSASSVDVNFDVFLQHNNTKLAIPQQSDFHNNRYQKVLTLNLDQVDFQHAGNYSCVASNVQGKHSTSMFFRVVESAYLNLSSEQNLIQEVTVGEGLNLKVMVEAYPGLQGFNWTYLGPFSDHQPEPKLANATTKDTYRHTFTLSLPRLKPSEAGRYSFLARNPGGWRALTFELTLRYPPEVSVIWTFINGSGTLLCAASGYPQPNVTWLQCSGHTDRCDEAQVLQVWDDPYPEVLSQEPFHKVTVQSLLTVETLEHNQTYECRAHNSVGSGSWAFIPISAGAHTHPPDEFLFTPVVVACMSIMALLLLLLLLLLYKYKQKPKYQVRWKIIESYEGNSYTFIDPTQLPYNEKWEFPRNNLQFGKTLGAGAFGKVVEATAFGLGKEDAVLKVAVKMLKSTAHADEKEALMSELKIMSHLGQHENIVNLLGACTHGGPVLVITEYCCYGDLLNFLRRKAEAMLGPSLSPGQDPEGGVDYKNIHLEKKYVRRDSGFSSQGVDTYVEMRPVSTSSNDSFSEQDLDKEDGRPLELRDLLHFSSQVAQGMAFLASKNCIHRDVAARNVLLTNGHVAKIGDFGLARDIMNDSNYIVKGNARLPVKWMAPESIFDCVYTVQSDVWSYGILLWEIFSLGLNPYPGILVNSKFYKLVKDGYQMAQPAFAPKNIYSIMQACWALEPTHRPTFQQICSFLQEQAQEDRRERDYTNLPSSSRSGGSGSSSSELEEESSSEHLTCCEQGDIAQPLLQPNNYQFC
Protocol: In order to quantitatively detect the extent of nuclear translocation of GFP-STAT1 induced by hrM-CSF, in this Example, in Cell Analyzer 1000 or In Cell Analyzer 2000 was used to obtain the cell image of GFP-STAT1 nuclear translocation. The cell image obtained was analyzed by using Nuclear Trafficking Analysis Module, wherein the translocation index represents the extent of nuclear translocation of GFP-STAT1. Translocation index equals to the ratio of the mean fluorescence intensity of nucleus to the mean fluorescence intensity of cytoplasm of the cells obtained per well. The steps were as follows: • 1) seeding the cells to a 96-well culture plate (which was black and transparent at the bottom), culturing in an incubator at 37° C., 5% CO2, 80% humidity for 24 hours; • 2) washing the cell twice with serum-free DMEM medium that contains 4500 mg/L glucose, 4 mM L-glutamine, 0.2% BSA and 10 mM HEPES (hereafter referred to as cell analytic liquid), wherein the cell analytic liquid was added at 100 μL/well for each time; after that, adding 50 μL cell analytic liquid to each well; • 3) adding the cell analytic liquid that contains hrM-CSF at 50 μL/well, […], and incubating the cells in an incubator at 37° C. for 30 minutes; • 4) fixing the cells with 8% formaldehyde diluted with 1×PBS solution and preheated at 37° C. at 100 μL/well, and placing the plate in dark at room temperature for 20 minutes; • 5) discarding the cell fixation solution, adding 1×PBS solution that contains hoechst33342 at 200 μL/well, placing the plate in dark at room temperature for 30 minutes; • 6) obtaining the cell image by using In Cell Analyzer 1000, analyzing the extent of nuclear translocation of GFP-STAT1 by using Nuclear Trafficking Analysis Module. […]

[2] = biological target: T1, c-Fms kinase in the U2OS-GFP-STAT1/CSF-1R cells; assay: Effect of the time for treating cells with hrM-CSF on GFP-STAT1 nuclear translocation; assay type: cell-based; conditions: 200 ng/mL hrM-CSF; 0-60 minutes
Protocol: The steps were as follows: • 1) using the cells prepared in the example 1 to prepare a cell suspension of 1×10^5 cells/mL, seeding the cells to a 96-well culture plate (which was black and transparent at the bottom) at 100 μL/well; and culturing the cells in an incubator at 37° C., 5% CO2, 80% humidity for 24 hours; • 2) washing the cells twice with the cell analytic liquid at 100 μL/well for each time, discarding the solution, and adding the cell analytic liquid at 50 μL/well; • 3) adding hrM-CSF diluted with the cell analytic liquid every 5 minutes, to obtain a final concentration of 200 ng/mL, setting the cell analytic liquid containing no hrM-CSF as the control, incubating the cells in an incubator at 37° C., and treating the cells with the cytokine for 0, 5, 10, 15, 20, 25, 30, 35, 40, 45, 50, 55, 60 minutes, respectively; • 4) adding the cell fixation solution preheated at 37° C. at 100 μL/well, slightly shaking the culture plate to mix the mixture uniformly, and placing the plate in dark at room temperature for 20 minutes; • 5) discarding the solution, adding 1×PBS solution that contains hoechst33342 at 200 μL/well, and placing the plate in dark at room temperature for 30 minutes; and • 6) obtaining the cell image by using In Cell Analyzer 2000, and analyzing the extent of nuclear translocation of GFP-STAT1 by using Nuclear Trafficking Analysis Module.

B1: hrM-CSF: recombinantly expressed human M-CSF (macrophage colony stimulating factor), ligand activating c-Fms (protein, UniProt P09603 33-554, looked up)
Macrophage colony-stimulating …: EEVSEYCSHMIGSGHLQSLQRLIDSQMETSCQITFEFVDQEQLKDPVCYLKKAFLLVQDIMEDTMRFRDNTPNAIAIVQLQELSLRLKSCFTKDYEEHDKACVRTFYETPLQLLEKVKNVFNETKNLLDKDWNIFSKNCNNSFAECSSQDVVTKPDCNCLYPKAIPSSDPASVSPHQPLAPSMAPVAGLTWEDSEGTEGSSLLPGEQPLHTVDPGSAKQRPPRSTCQSFEPPETPVVKDSTIGGSPQPRPSVGAFNPGMEDILDSAMGTNWVPEEASGEASEIPVPQGTELSPSRPGGGSMQTEPARPSNFLSASSPLPASAKGQQPADVTGTALPRVGPVRPTGQDWNHTPQKTDHPSALLRDPPEPGSPRISSLRPQGLSNPSTLSAQPQLSRSHSSGSVLPLGELEGRRSTRDRRSPAEPEGGPASEGAARPLPRFNSVPLTDTGHERQSEGSFSPQLQESVFHLLVPSVILVLLAVGGLLFYRWRRRSHQEPQRADSPLEQPEGSPLTQDDRQVELPV
- concentration of hrM-CSF at which extent of nuclear translocation of GFP-STAT1 reached the maximum [1]: 600 ng/mL
- concentration of hrM-CSF at which nuclear translocation of GFP-STAT1 began [1]: 10 ng/mL
- median effective concentration (EC50) of hrM-CSF for inducing GFP-STAT1 nuclear translocation ([1]; n=6): 0.0435 ± 0.00368 µg/mL
- treatment time at which extent of GFP-STAT1 nuclear translocation reached the maximum [2]: 30 min
